The record followed here is patent EP4497755A1 (Asociación Centro de Investigación Cooperativa en …, dated 2025).

Test [1] deals with VSV-G-tagged full-length LRP6 (UniProt O75581). Nature of the test: immunofluorescence colocalization in transfected cells.
The target of test [2] is T1, WNT7A peptide GKELKVGSREAAC
T1 peptide: GKELKVGSREAAC
Nature of the test: peptide ELISA. (In general: In an ELISA, binding on a coated surface is turned into a signal by an enzyme label.)

Test [3] has as its target T2, WNT3/3A peptide DSLAIFGPVLDKATRESAC
T2 peptide: DSLAIFGPVLDKATRESAC
Nature of the test: peptide ELISA.

Test [4] deals with T3, WNT7B peptide GQELRVGSREAAC
T3 peptide: GQELRVGSREAAC
Nature of the test: peptide ELISA.

Test [5] deals with T4, WNT10A peptide YESPIFSRGFRESAC
T4 peptide: YESPIFSRGFRESAC
As to the kind of experiment: peptide ELISA.

The target in test [6] is T5, WNT9A peptide RASLLKRGFKETAC
T5 peptide: RASLLKRGFKETAC
Nature of the test: peptide ELISA.

Test [7] concerns the target T6, Wnt-11 peptide LLDLERGTRESAC (human).
T6 construct: The C-terminal cysteine is not part of Wnt-11; also called wt101
T6 peptide: LLDLERGTRESAC
As to the kind of experiment: peptide dot blot and peptide ELISA (Fig. 6a, b).

The target of test [8] is T7, human Wnt-11 (wild-type, untagged) (human, UniProt O96014 25-354).
T7 construct: whole, on cells; also called wild-type Wnt-11
T7 sequence (looked up): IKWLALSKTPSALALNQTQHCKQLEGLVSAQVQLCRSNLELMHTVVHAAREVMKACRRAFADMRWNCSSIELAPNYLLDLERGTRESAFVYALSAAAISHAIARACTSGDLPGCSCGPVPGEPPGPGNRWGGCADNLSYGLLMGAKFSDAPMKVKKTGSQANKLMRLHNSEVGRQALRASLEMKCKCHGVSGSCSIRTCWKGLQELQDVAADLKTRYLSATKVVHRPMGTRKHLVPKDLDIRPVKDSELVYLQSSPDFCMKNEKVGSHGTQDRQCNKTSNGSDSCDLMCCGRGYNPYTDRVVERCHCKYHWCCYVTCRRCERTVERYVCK
As to the kind of experiment: immunofluorescence of non-permeabilized VCaP (Wnt-11 high) and C4-2B (Wnt-11 low) cells.

The target of test [9] is T8, Wnt-11 antibody epitope deletion mutant Wnt-11m (Wnt-11 delta 101-108, untagged) (human, UniProt O96014 25-354).
T8 construct: whole, on cells; also called AE
T8 sequence (looked up): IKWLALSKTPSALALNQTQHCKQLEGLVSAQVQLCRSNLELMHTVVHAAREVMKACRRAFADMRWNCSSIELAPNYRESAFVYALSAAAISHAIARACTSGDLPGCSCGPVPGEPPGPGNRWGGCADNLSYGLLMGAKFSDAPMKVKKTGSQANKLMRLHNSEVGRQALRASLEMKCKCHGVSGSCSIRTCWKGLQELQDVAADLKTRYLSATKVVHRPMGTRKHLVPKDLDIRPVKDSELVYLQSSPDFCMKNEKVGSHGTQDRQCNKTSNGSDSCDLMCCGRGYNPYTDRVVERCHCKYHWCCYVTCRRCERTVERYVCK
Nature of the test: Ab1 staining and FACS sorting of transfected HEK 293 cells, western blot of Ab1high and Ab1low populations.

Test [10] addresses T9, Wnt-11 peptide LLDLERGTRESA (human).
T9 construct: also called Wnt-11 amino acids L101-A112
T9 peptide: LLDLERGTRESA
As to the kind of experiment: peptide dot blot.

The target of test [11] is T10, Wnt-11 alanine replacement peptide P07 LLDLERATRESA (human).
T10 peptide: LLDLERATRESA
Nature of the test: peptide ELISA, alanine replacement panel.

The target of test [12] is T11, Wnt-11 alanine replacement peptide P03 LLALERGTRESA (human).
T11 peptide: LLALERGTRESA
Nature of the test: peptide ELISA, alanine replacement panel.

Test [13] has as its target T12, Wnt-11 alanine replacement peptide P10 LLDLERGTRASA (human).
T12 peptide: LLDLERGTRASA
As to the kind of experiment: peptide ELISA, alanine replacement panel.

In test [14] the target is T13, Wnt-11 alanine replacement peptide P06 LLDLEAGTRESA (human).
T13 peptide: LLDLEAGTRESA
Nature of the test: peptide ELISA, alanine replacement panel.

Test [15] concerns the target T14, Wnt-11 alanine replacement peptide P04 LLDAERGTRESA (human).
T14 peptide: LLDAERGTRESA
As to the kind of experiment: peptide ELISA, alanine replacement panel.

Test [16] concerns the target T15, Wnt-11 alanine replacement peptide P09 LLDLERGTAESA (human).
T15 peptide: LLDLERGTAESA
Nature of the test: peptide ELISA, alanine replacement panel.

Test [17] addresses T16, Wnt-11 alanine replacement peptide P11 LLDLERGTREAA (human).
T16 peptide: LLDLERGTREAA
Nature of the test: peptide ELISA, alanine replacement panel.

Test [18] addresses T17, Wnt-11 alanine replacement peptide P05 LLDLARGTRESA (human).
T17 peptide: LLDLARGTRESA
As to the kind of experiment: peptide ELISA, alanine replacement panel.

For test [19], the target named is T18, Wnt-11 alanine replacement peptide P08 LLDLERGARESA (human).
T18 peptide: LLDLERGARESA
As to the kind of experiment: peptide ELISA, alanine replacement panel.

Test [20] addresses T19, Wnt-11 alanine replacement peptide P01 ALDLERGTRESA (human).
T19 peptide: ALDLERGTRESA
Nature of the test: peptide ELISA, alanine replacement panel.

The target in test [21] is T20, Wnt-11 alanine replacement peptide P02 LADLERGTRESA (human).
T20 peptide: LADLERGTRESA
Nature of the test: peptide ELISA, alanine replacement panel.

The target in test [22] is T9, Wnt-11 peptide LLDLERGTRESA
Nature of the test: peptide ELISA.

The target of test [23] is T6, Wnt-11 peptide LLDLERGTRESAC
As to the kind of experiment: peptide dot blot (Fig. 6a).

VSV-G-tagged full-length LRP6, sequence (O75581 other isoform, or with tags, fused parts or gaps limits assumed): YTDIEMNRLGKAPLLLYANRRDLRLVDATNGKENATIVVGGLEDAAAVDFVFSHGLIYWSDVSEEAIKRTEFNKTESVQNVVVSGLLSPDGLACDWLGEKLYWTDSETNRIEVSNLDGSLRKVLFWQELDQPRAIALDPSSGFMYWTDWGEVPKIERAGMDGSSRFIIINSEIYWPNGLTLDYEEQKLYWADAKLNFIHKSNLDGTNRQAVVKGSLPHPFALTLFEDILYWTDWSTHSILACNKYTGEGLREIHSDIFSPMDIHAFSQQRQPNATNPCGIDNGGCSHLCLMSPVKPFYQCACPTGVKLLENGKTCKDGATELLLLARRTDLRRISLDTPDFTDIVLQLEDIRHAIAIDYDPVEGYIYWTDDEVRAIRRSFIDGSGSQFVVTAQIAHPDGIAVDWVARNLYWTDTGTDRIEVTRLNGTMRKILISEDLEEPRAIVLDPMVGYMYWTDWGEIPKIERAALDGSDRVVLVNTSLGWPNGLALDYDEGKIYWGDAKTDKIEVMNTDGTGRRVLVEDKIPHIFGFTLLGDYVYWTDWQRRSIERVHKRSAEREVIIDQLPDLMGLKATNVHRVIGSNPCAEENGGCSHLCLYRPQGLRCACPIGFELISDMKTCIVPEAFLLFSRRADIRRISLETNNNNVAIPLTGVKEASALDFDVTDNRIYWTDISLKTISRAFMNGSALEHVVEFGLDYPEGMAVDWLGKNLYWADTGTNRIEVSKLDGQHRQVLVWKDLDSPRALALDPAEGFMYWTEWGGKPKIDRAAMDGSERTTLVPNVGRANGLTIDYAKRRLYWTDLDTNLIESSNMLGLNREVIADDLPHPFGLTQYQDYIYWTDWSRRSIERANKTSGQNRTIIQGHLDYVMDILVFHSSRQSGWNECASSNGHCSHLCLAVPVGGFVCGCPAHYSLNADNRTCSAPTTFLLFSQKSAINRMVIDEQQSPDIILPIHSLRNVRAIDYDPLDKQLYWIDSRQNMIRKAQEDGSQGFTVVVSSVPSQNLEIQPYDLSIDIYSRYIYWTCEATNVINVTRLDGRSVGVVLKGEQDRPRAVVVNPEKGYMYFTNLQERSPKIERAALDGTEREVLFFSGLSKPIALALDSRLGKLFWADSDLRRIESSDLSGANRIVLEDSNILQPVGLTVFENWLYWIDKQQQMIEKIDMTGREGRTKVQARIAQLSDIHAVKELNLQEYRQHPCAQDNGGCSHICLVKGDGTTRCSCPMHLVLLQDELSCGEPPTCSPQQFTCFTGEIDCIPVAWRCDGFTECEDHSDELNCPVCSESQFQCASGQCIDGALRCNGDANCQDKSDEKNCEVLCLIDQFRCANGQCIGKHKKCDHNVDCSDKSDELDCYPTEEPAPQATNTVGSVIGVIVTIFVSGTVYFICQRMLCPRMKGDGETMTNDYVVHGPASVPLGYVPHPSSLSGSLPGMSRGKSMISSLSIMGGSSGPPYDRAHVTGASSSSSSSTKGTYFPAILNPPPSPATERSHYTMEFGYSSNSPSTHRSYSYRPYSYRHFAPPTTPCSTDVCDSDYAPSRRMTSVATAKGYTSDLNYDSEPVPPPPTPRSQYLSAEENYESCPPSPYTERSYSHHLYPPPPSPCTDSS

B1: Wnt-11 antibody epitope deletion mutant Wnt-11m (Wnt-11 delta 101-108, untagged) (ligand, human, UniProt O96014 25-354, looked up)
chain: T8 sequence (looked up)
In test [1], B1 had a colocalization with LRP6, Pearson of 0.4 and a colocalization with LRP6, Spearman of 0.46.

B2: anti-Wnt-11 rat monoclonal antibody Ab1 (E8) (antibody, rat IgG2a, V domains shown)
VH: EVELVESGGGLVQPGRSLKLSCAASGFTFSDYGMAWVRQTPTKGLEWVASITSGGGNPYYRDSVKGRFTISRDNAKNTQHLQMDSLRSEDTATYYCARHEYYGNYMTCFDYWGQGVMVTVSS
VL: AIVLNQSPSSIVASQGEKVTITCRASLSISSNYLHWYQQKPGAFPKLVIYSTSYRASGVPSRFSGSGSGTSYSFTISRVEAEDVATYYCQQGSSDPLTFGSGTKLEIK
notes: also called anti-Wnt-11-Ab1; Wnt-11 antibody E8
On to B2, for which the binding result in test [2] is given as “no binding”; in [3], “no binding”; in [4], “no binding”; in [5], “no binding”; in test [6] it was “no binding”; in [7], “binds”. Further, the binding result in [8] is given as “binds”; in test [9] it was “no binding (tested: Ab1 at 30 µg/ml)”; in test [10], “binds”; in test [11], “binds”; in [12], “no binding”; in test [13] it was “binds”. Further, the binding result in [14] is “no binding”; in test [15], “no binding”; in test [16], “binds”; in test [17], “binds”; in test [18], “no binding”; in [19] it was “binds”. The binding result in [20] and in test [21] was “no binding” throughout.

B3: chimeric anti-Wnt-11 antibody E8h4hk (E8 IgG4k chimeric antibody) (antibody, V domains shown)
VH: B2 VH
VL: B2 VL
notes: also called chimeric E8 (hIgG4kappa)
Take B3: the binding result in test [22] is “binds”.

B4: anti-Wnt-11 rat monoclonal antibody Ab2 (F10) (antibody, rat IgG2c, V domains shown)
VH: EVQLVESGGGLVQPGRSLKLSCAASGFTFSNYGMAWVRQAPTKGLEWVASINYDGRNTYYRDSVKGRFTISRDNAKSTVYLQMDSLRSEDTATYYCARPQDGVIDAWGQGDSVTVSS
VL: DVVMTQTPVSLPVSLGGQASISCRSSQSLVHSNGNTYLHWYLQKPGQFPQLLIYRVSNRFSGVPDRFSGSGSGTDFTLKISRVESEDLGVYYCLQGTHLPPTFGGGTKLELK
notes: also called anti-Wnt-11-F10; Wnt-11 antibody F10
Turning to B4, the binding result in [10] and in [23] was “binds” each time.

B5: human Wnt-11 (wild-type, untagged) (ligand, UniProt O96014 25-354, looked up)
chain: T7 sequence (looked up)
As to B5, in [1], the colocalization with LRP6, Pearson was determined as 0.6 and the colocalization with LRP6, Spearman was determined as 0.67.
